Assay results published in patent US20160333308A1.

Tests used:
[1] = molecular target: methanol dehydrogenase MDH2 from Bacillus methanolicus PB1 (Bacillus methanolicus PB1); experiment: cell-based or functional assay
[2] = test system: activator protein (ACT) from Bacillus methanolicus PB1

specific activity of MDH2 with ACT, crude lysates [1] [µmol/min/mg] | Substance | Km for methanol of MDH2 with ACT, crude lysates [2]
0.009 | activator protein (ACT) from Bacillus methanolicus PB1 | 
 | methanol dehydrogenase MDH2 from Bacillus methanolicus PB1 | a Km of 119 mM
